Assay results from article doi:10.1101/2024.12.23.630145, “Setdb1 and Atf7IP form a hetero-trimeric complex that blocks Setdb1 nuclear export” (bioRxiv, 2024).
Residue numbers refer to the chain shown, from its start. Names may count otherwise.

B1: 6Xhis-SUMO-Setdb1(Δα1- α2; residues 50–114) (domain or fragment, human, UniProt Q15047 50-114, looked up)
chain: KMDCVQQRKKQLAELETWVIQKESEVAHVDQLFDDASRAVTNCESLVKDFYSKLGLQYRDSSSED
notes: Setdb1, human, UniProt Q15047, residues 50–114 (helices α1 and α2 removed); source: E. coli (BL21DE3 or Rosetta2), purified (HisTrap, dialysis); not shown: His6, N-terminal, kept; SUMO, N-terminal, kept
B2: 6Xhis-SUMO-Setdb1(Δα1; residues 35–114) (domain or fragment, human, UniProt Q15047 35-114, looked up)
chain: ISMEELRHFIDEELEKMDCVQQRKKQLAELETWVIQKESEVAHVDQLFDDASRAVTNCESLVKDFYSKLGLQYRDSSSED
notes: Setdb1, human, UniProt Q15047, residues 35–114 (helix α1 with NES#1 removed); source: E. coli (BL21DE3 or Rosetta2), purified (HisTrap, dialysis); not shown: His6, N-terminal, kept; SUMO, N-terminal, kept
B3: biotin-MBP-Atf7IP(574–666) (domain or fragment, human, UniProt Q6VMQ6 574-666, looked up)
chain: EEEYEAEFQVKITAKGDINQKLQKVIQWLLEEKLCALQCAVFDKTLAELKTRVEKIECNKRHKTVLTELQAKIARLTKRFEAAKEDLKKRHEH
modifications: biotin (on the Avi-tag)
notes: also called AviTag-MBP-Atf7IP; source: E. coli, co-expressed with birA with 40μM biotin, purified (MBPTrap, Superdex 200); not shown: AviTag, N-terminal, kept; MBP, N-terminal, kept
B4: 6Xhis-SUMO-Atf7IP(574–666) (domain or fragment, human, UniProt Q6VMQ6 574-666, looked up)
chain: B3 chain
notes: Printed mass 23.2 kDa; not shown: His6, N-terminal, kept; SUMO, N-terminal, kept
B5: MBP-Atf7IP (574–666) C608S C612S (domain or fragment, human, UniProt Q6VMQ6 574-666, looked up)
chain: B3 chain with C35S, C39S
notes: also called Atf7IP(C631); not shown: MBP, N-terminal, kept

Legend:
[1] = target: B3; assay: AlphaScreen or HTRF; His-sumo-Setdb1 on nickel chelate acceptor beads, biotin-MBP-Atf7IP(574–666) on streptavidin donor beads; 20nM each, or one at 20nM and the other 0–20nM; 50mM MOPS, 50mM CHAPS, 50mM NaF, 100μg/ml BSA, pH7; room temperature; settings: both partners purified
His-sumo-Setdb1(2–115) = target: T1, His-sumo-Setdb1(2–115) (human, UniProt Q15047 2-115); assay: as above; settings: both partners purified
T1 construct: source: E. coli (BL21DE3 or Rosetta2), purified (HisTrap, dialysis); not shown: His6, N-terminal, kept; SUMO, N-terminal, kept

[2] = target: the molecule itself; assay: SEC; isolated MBP-Atf7IP(574–666), gel filtration with and without Tween 20
GST-Setdb1(2–115) = target: T2, GST-Setdb1(2–115) (human, UniProt Q15047 2-115); assay: pull-down; 0.5 μM GST fusion on glutathione Sepharose beads; 1.5 μM hCRM1 with or without 4.5 μM Ran^GTP; MBP-Atf7IP(574–666) pre-incubated at 3-fold or 15-fold excess; TB buffer (20mM HEPES 7.4, 110mM potassium acetate, 2mM magnesium acetate, 10% glycerol, 2mM DTT, 0.005% Tween20); Coomassie SDS-PAGE; settings: both partners purified
T2 construct: also called GST-Setdb1(2–114); source: E. coli, purified (GSTTrap, Superdex 200); not shown: GST, N-terminal, kept

[3] = target: the molecule itself; assay: native MS; co-expressed complex purified, exchanged into 400 mM ammonium acetate pH 7.9, 1 mM DTT; 500 nM; HCD 220 V for fragments
MBP-Setdb1(2–115) = target: T3, MBP-Setdb1(2–115) (human, UniProt Q15047 2-115); assay: SEC-MALS; co-expressed complex purified by MBP affinity; Superdex 200 Increase 10/300 GL; about 400 μL at ~1 mg/mL; settings: both partners purified
T3 construct: Printed mass 56.7 kDa; also called MBP-Setdb1(2–114); source: E. coli, co-expressed with its partners; complex purified (MBPTrap, Superdex 200); not shown: MBP, N-terminal, kept

[4] = target: the molecule itself; assay: cross-linking; MBP-Atf7IP(574–666) C608S C612S in isolation, purified on amylose beads, non-reducing; SDS-PAGE with and without BME

With B1 the “binding as percent of WT” value [1] was ~30 % of WT.

For B2, the “binding as percent of WT” value [1] was ~80 % of WT.

B3: binds (His-sumo-Setdb1(2–115)); binds [2]; binds (GST-Setdb1(2–115)).

With B4 the binding result [3] was “binds” and the “stoichiometry N” value (MBP-Setdb1(2–115)) was 2 Atf7IP per Setdb1.

B5: binds [4].
